Earlier results, collected in PMC9917595.

Target: Endothelin-1 (Homo sapiens) (UniProt P05305)
Conditions: cited from earlier work

Chain of UniProt P05305 (P05305 53-73): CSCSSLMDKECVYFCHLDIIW

Question: With “Endothelin B receptor (from UniProt P24530)” as the substance, how does the Kd read?
Answer: The Kd was 0.0286 nM.
